How the values were obtained:
HLA-B*15:01 = assay: IEDB peptide-MHC binding, purified MHC/direct/fluorescence; filed as Kd, often an IC50 or EC50 that approximates it; ≥ and ≤ were set here for values at or beyond the usual limits of such assays; settings: source organism: Yellow fever virus 17D
HLA-B*46:01 = assay: as above; settings: source organism: Yellow fever virus 17D
HLA-B*15:42 = assay: IEDB peptide-MHC binding, purified MHC/competitive/fluorescence; filed as Kd, often an IC50 or EC50 that approximates it; ≥ and ≤ were set here for values at or beyond the usual limits of such assays; settings: source organism: Yellow fever virus
HLA-B*45:06 = assay: as above; settings: source organism: Yellow fever virus
HLA-B*83:01 = assay: as above; settings: source organism: Yellow fever virus
HLA-A*02:01 = assay: IEDB peptide-MHC binding, purified MHC/competitive/radioactivity; filed as Kd, often an IC50 or EC50 that approximates it; ≥ and ≤ were set here for values at or beyond the usual limits of such assays
HLA-A*02:03 = assay: as above
HLA-A*02:17 = assay: as above
HLA-A*03:01 = assay: IEDB peptide-MHC binding, purified MHC/competitive/fluorescence; ≥ and ≤ were set here for values at or beyond the usual limits of such assays
HLA-A*11:01 = assay: as above
HLA-B*18:01 = assay: IEDB peptide-MHC binding, purified MHC/competitive/radioactivity; filed as Kd, often an IC50 or EC50 that approximates it; ≥ and ≤ were set here for values at or beyond the usual limits of such assays
HLA-B*40:01 = assay: as above
HLA-B*40:02 = assay: as above
HLA-B*44:02 = assay: as above
HLA-B*44:03 = assay: as above
HLA-B*45:01 = assay: as above
HLA-B*07:02 = assay: IEDB peptide-MHC binding, purified MHC/competitive/fluorescence; filed as Kd, often an IC50 or EC50 that approximates it; ≥ and ≤ were set here for values at or beyond the usual limits of such assays; settings: source organism: Yersinia pestis Nepal516
HLA-B*35:01 = assay: as above; settings: source organism: Yersinia pestis Nepal516
HLA-B*39:01 = assay: as above; settings: source organism: Yersinia pestis Nepal516
HLA-B*51:01 = assay: as above; settings: source organism: Yersinia pestis Nepal516
[1] = source organism: Dengue virus 3 China/80-2/1980
[2] = source organism: Sudan ebolavirus
[3] = source organism: Zaire ebolavirus
[4] = source organism: Mammarenavirus lassaense
[5] = source organism: Dengue virus 1 Singapore/S275/1990
[6] = source organism: SARS coronavirus Tor2

For AEMGANLCV, the Kd (HLA-B*15:01) was ≥ 20000 nM, the Kd (HLA-B*46:01) was ≥ 20000 nM and the Kd (HLA-B*15:42) was ≥ 5000 nM. For the same sequence, the Kd (HLA-B*45:06) was ≥ 5000 nM and the Kd (HLA-B*83:01) was ≥ 5000 nM.
ALFSGVSWI showed a Kd (HLA-A*02:01; [1]) of 0.51 nM, a Kd (HLA-A*02:03; source organism: Dengue virus 3 Singapore/8120/1995) of 1.58 nM and a Kd (HLA-A*02:17; [1]) of 483 nM.
AQHSTTLFK gave an IC50 (HLA-A*03:01; [2]) of 30000 nM and an IC50 (HLA-A*11:01; [2]) of 994 nM.
ATTTSPQNH showed an IC50 (HLA-A*03:01; [3]) of 37700 nM and an IC50 (HLA-A*11:01; [3]) of 1910 nM.
FDAATTGSL was tested, and the Kd (HLA-B*18:01; [4]) was ≥ 38900 nM, the Kd (HLA-B*40:01; [4]) was 16600 nM and the Kd (HLA-B*40:02; [4]) was 2290 nM. For the same sequence, the Kd (HLA-B*44:02; [4]) was ≥ 22200 nM, the Kd (HLA-B*44:03; [4]) was ≥ 44600 nM and the Kd (HLA-B*45:01; [4]) was 14400 nM.
Work on FLAHAIGTSI yielded a Kd (HLA-A*02:01; [5]) of 8.19 nM, a Kd (HLA-A*02:03; source organism: Dengue virus 1 Brazil/97-11/1997) of 46.7 nM and a Kd (HLA-A*02:17; [5]) of 1.85 nM.
In the case of FPVAMLSCL, the Kd (HLA-B*07:02) is reported as 15.7 nM, the Kd (HLA-B*35:01) is reported as ≤ 0.1 nM and the Kd (HLA-B*39:01) is reported as 18.5 nM. The Kd (HLA-B*51:01) was 186 nM.
Work on HEGHQTAAF yielded a Kd (HLA-B*18:01; [6]) of 4270 nM, a Kd (HLA-B*40:01; [6]) of 2980 nM and a Kd (HLA-B*40:02; [6]) of 2810 nM. For the same sequence, the Kd (HLA-B*44:02; [6]) was 1120 nM, the Kd (HLA-B*44:03; [6]) was 4750 nM and the Kd (HLA-B*45:01; [6]) was ≥ 26200 nM.

— the Immune Epitope Database (IEDB)
